In patent publication US20180339057A1 (Novo Nordisk, published 2018):

Tests used:
[1] = molecular target: T1, human MIC-1 receptor (hGFRAL, GDNF family receptor alpha like), full length (human, UniProt Q6UXV0 19-394); experiment: cell-based or functional assay
T1 sequence (looked up): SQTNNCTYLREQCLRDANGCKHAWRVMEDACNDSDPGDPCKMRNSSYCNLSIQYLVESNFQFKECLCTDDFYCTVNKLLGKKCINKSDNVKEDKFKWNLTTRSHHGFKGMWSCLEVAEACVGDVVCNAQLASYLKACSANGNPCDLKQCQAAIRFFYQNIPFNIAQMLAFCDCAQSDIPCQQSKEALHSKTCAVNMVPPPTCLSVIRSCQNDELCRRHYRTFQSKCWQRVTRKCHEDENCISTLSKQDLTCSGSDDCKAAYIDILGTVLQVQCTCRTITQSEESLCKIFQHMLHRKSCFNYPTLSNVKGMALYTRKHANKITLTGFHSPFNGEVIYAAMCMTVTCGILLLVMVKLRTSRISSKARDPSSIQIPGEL

[2] = molecular target: T1, human MIC-1 receptor (hGFRAL, GDNF …); experiment: SPA: displacement of 50 pM human [125I]-MIC-1 from BHK21-hGFRAL-IRES-hRET cell membranes
Method: Binding potencies of MIC-1 compounds were calculated by IC50 of displacement curves.
BHK21-hGFRAL-IRES-hRET cells were cultured at +37° C. in a humidified atmosphere with 5% CO₂ in complete medium consisting of DMEM with high glucose and sodium pyrovate, heat inactivated 10% Fetal Bovine Serum, 1% Penicillin-Streptomycin, 1 mg/ml G418-Geneticin and 400 ug/ml Hygromycin. Cells were washed twice in ice cold Dulbecco's phosphate-buffered saline (DPBS) and detached mechanically by scraping, transferred in ice cold DPBS into conical centrifuge tubes and centrifuged for 5 min at 1500 rpm at +20° C. Cell pellet was resuspended in a total amount of 10 ml ice cold homogenization buffer A (50 mM Tris, 2.5 mM EDTA, adjust pH7.4 with one EDTA-free protease inhibitor cocktail tablet/50 ml) and homogenized for 20 seconds. The homogenate was centrifuged at 16000 rpm in 20 minutes at +4° C. The supernatant was discarded and the pellet was reconstituted in 10 ml homogenization buffer B (50 mM Tris, 320 mM Sucrose, adjust pH 7.4 with one EDTA-free protease inhibitor cocktail tablet/50 ml) and homogenized for 20 seconds and centrifuged at 16000 rpm in 20 minutes at +4° C. This procedure was repeated one more time. The supernatant was discarded and the pellet was reconstituted in 3 ml homogenization buffer B and homogenized for 10 seconds at low speed. Protein concentration was determined by standard Bradford method and 1.5 mg protein/tube was aliquoted to cryotubes and stored at −80° C. Binding assays were performed in white 96-well plates in a total volume of 200 μl per well. Wheat germ agglutinin SPA beads were reconstituted in assay buffer (50 mM Tris/HCl, 4.5 mM MgCl₂, 0.02% Tween 20 and 0.25% Ovalbumin pH 7.4) and mixed with membrane preparation to give a final concentration of 0.5 mg SPA beads and 10 μg total protein per well. […] The plate was sealed and incubated at +22° C. for 2 hours in a plate shaker set at 350 rpm and thereafter centrifuged at 1500 rpm for 10 minutes prior to reading of SPA bead light emission.

[3] = molecular target: T1, human MIC-1 receptor (hGFRAL, GDNF …); experiment: cell-based or functional assay; remark: listed apart in the source

Emax (%) [1]	pERK EC50 (nM) [1]	IC50 [2]	Luciferase + 0.1% HSA NNDK EC50 (pM) [3]	Luciferase NNDK EC50 (pM) [3]	Binder
100%	0.3 nM	–	–	–	MIC-1(R2A,N3E,A54E) (ligand) AAEGDHCPLGPGRCCRLHTVRASLEDLGWADWVLSPREVQVTMCIGACPSQFREANMHAQIKTSLHRLKPDTVPAPCCVPASYNPMVLIQKTDTGVSLQTYDDLLAKDCHCI
100%	0.3 nM	–	–	–	MIC-1(R2A,N3E,A81E) (ligand) AAEGDHCPLGPGRCCRLHTVRASLEDLGWADWVLSPREVQVTMCIGACPSQFRAANMHAQIKTSLHRLKPDTVPAPCCVPESYNPMVLIQKTDTGVSLQTYDDLLAKDCHCI
100%	0.4 nM	–	–	–	SEPATSGSETPGTSESATPESGPGTSTEPS-MIC-1-Δ1-3 (ligand) SEPATSGSETPGTSESATPESGPGTSTEPSGDHCPLGPGRCCRLHTVRASLEDLGWADWVLSPREVQVTMCIGACPSQFRAANMHAQIKTSLHRLKPDTVPAPCCVPASYNPMVLIQKTDTGVSLQTYDDLLAKDCHCI
100%	0.4 nM	–	–	–	SEPATSGSETPGTSESATPESGPGTSTEPSEG-MIC-1-Δ1-3 (ligand) SEPATSGSETPGTSESATPESGPGTSTEPSEGGDHCPLGPGRCCRLHTVRASLEDLGWADWVLSPREVQVTMCIGACPSQFRAANMHAQIKTSLHRLKPDTVPAPCCVPASYNPMVLIQKTDTGVSLQTYDDLLAKDCHCI
100%	0.7 nM	–	–	–	…-MIC-1-Δ1-3 (ligand) SEPATSGSETPGTSTEPSEGSAPGGDHCPLGPGRCCRLHTVRASLEDLGWADWVLSPREVQVTMCIGACPSQFRAANMHAQIKTSLHRLKPDTVPAPCCVPASYNPMVLIQKTDTGVSLQTYDDLLAKDCHCI
–	–	17 nM	58 pM	90 pM	Compound 04 (ligand, Cys-27 (residue 6 of SEQ ID NO: 291): S{Beta}-[2-[2-[[2-[2-[2-[[2-[2-[2-[[(4S)-4-carboxy-4-(13-carboxytridecanoylamino)butanoyl]amino]ethoxy]ethoxy]acetyl]amino]ethoxy]ethoxy]acetyl]amino]ethylamino]-2-oxoethyl]Cys (protractor of Example 10.3), homodimer, two protractors per dimer) SEPATCGSETPGTSESATPESGPGTSTEPSEGARGDHCPLGPGRCCRLHTVRASLEDLGWADWVLSPREVQVTMCIGACPSQFRAANMHAQIKTSLHRLKPDTVPAPCCVPASYNPMVLIQKTDTGVSLQTYDDLLAKDCHCI

Further lines, the binder ahead of its results:

Binder	Emax (%) [1]	pERK EC50 (nM) [1]	IC50 [2]	Luciferase + 0.1% HSA NNDK EC50 (pM) [3]	Luciferase NNDK EC50 (pM) [3]
AAPEDEETPEQE-MIC-1-Δ1-3 (ligand) AAPEDEETPEQEGDHCPLGPGRCCRLHTVRASLEDLGWADWVLSPREVQVTMCIGACPSQFRAANMHAQIKTSLHRLKPDTVPAPCCVPASYNPMVLIQKTDTGVSLQTYDDLLAKDCHCI	100%	0.5 nM	–	–	–
A(GPEQGQEP)3-MIC-1-Δ1-3 (ligand) AGPEQGQEPGPEQGQEPGPEQGQEPGDHCPLGPGRCCRLHTVRASLEDLGWADWVLSPREVQVTMCIGACPSQFRAANMHAQIKTSLHRLKPDTVPAPCCVPASYNPMVLIQKTDTGVSLQTYDDLLAKDCHCI	100%	0.8 nM	–	–	–
(SEPATSGSETPG)2-MIC-1-Δ1-3(M57L, M86L) (ligand) SEPATSGSETPGSEPATSGSETPGGDHCPLGPGRCCRLHTVRASLEDLGWADWVLSPREVQVTMCIGACPSQFRAANLHAQIKTSLHRLKPDTVPAPCCVPASYNPLVLIQKTDTGVSLQTYDDLLAKDCHCI	100%	0.4 nM	–	–	–
(SEPATSGSETPG)2-MIC-1-Δ1-3 (ligand) SEPATSGSETPGSEPATSGSETPGGDHCPLGPGRCCRLHTVRASLEDLGWADWVLSPREVQVTMCIGACPSQFRAANMHAQIKTSLHRLKPDTVPAPCCVPASYNPMVLIQKTDTGVSLQTYDDLLAKDCHCI	100%	0.4 nM	–	–	–
(SEPATSGSETPG)2-MIC-1-Δ1-3(M57L) (ligand) SEPATSGSETPGSEPATSGSETPGGDHCPLGPGRCCRLHTVRASLEDLGWADWVLSPREVQVTMCIGACPSQFRAANLHAQIKTSLHRLKPDTVPAPCCVPASYNPMVLIQKTDTGVSLQTYDDLLAKDCHCI	100%	0.6 nM	–	–	–
(SEPATSGSETPG)2-MIC-1-Δ1-3(M57E) (ligand) SEPATSGSETPGSEPATSGSETPGGDHCPLGPGRCCRLHTVRASLEDLGWADWVLSPREVQVTMCIGACPSQFRAANEHAQIKTSLHRLKPDTVPAPCCVPASYNPMVLIQKTDTGVSLQTYDDLLAKDCHCI	60%	0.6 nM	–	–	–
(SEPATSGSETPG)2-MIC-1-Δ1-3(M86L) (ligand) SEPATSGSETPGSEPATSGSETPGGDHCPLGPGRCCRLHTVRASLEDLGWADWVLSPREVQVTMCIGACPSQFRAANMHAQIKTSLHRLKPDTVPAPCCVPASYNPLVLIQKTDTGVSLQTYDDLLAKDCHCI	100%	0.4 nM	–	–	–
SEPATSGSETPGTSESATPESGPGTSTEPSEG-MIC-1-des-N3 (M57L, M86L) (ligand, homodimer; no protractor) SEPATSGSETPGTSESATPESGPGTSTEPSEGARGDHCPLGPGRCCRLHTVRASLEDLGWADWVLSPREVQVTMCIGACPSQFRAANLHAQIKTSLHRLKPDTVPAPCCVPASYNPLVLIQKTDTGVSLQTYDDLLAKDCHCI	–	–	119 nM	64 pM	85 pM
Compound 03 (ligand, Cys-27 (residue 6 of SEQ ID NO: 291): S{Beta}-[2-[2-[[2-[2-[2-[[2-[2-[2-[[(4S)-4-carboxy-4-(15-carboxypentadecanoylamino)butanoyl]amino]ethoxy]ethoxy]acetyl]amino]ethoxy]ethoxy]acetyl]amino]ethylamino]-2-oxoethyl]Cys (protractor of Example 10.2), homodimer, two protractors per dimer) SEPATCGSETPGTSESATPESGPGTSTEPSEGARGDHCPLGPGRCCRLHTVRASLEDLGWADWVLSPREVQVTMCIGACPSQFRAANMHAQIKTSLHRLKPDTVPAPCCVPASYNPMVLIQKTDTGVSLQTYDDLLAKDCHCI	–	–	11 nM	106 pM	96 pM
Compound 01 (ligand, Cys-29 (residue 4 of SEQ ID NO: 288): S{Beta}-[2-[2-[[2-[2-[2-[[2-[2-[2-[[(4S)-4-carboxy-4-(17-carboxyheptadecanoylamino)butanoyl]amino]ethoxy]ethoxy]acetyl]amino]ethoxy]ethoxy]acetyl]amino]ethylamino]-2-oxoethyl]Cys (protractor of Example 10.4), homodimer, two protractors per dimer) SEPCTSGSETPGTSESATPESGPGTSTEPSEGARGDHCPLGPGRCCRLHTVRASLEDLGWADWVLSPREVQVTMCIGACPSQFRAANMHAQIKTSLHRLKPDTVPAPCCVPASYNPMVLIQKTDTGVSLQTYDDLLAKDCHCI	–	–	3.8 nM	59 pM	72 pM
Compound 02 (ligand, Cys-27 (residue 6 of SEQ ID NO: 291): S{Beta}-[2-[2-[[2-[2-[2-[[2-[2-[2-[[(4S)-4-carboxy-4-(17-carboxyheptadecanoylamino)butanoyl]amino]ethoxy]ethoxy]acetyl]amino]ethoxy]ethoxy]acetyl]amino]ethylamino]-2-oxoethyl]Cys, homodimer, two protractors per dimer) SEPATCGSETPGTSESATPESGPGTSTEPSEGARGDHCPLGPGRCCRLHTVRASLEDLGWADWVLSPREVQVTMCIGACPSQFRAANMHAQIKTSLHRLKPDTVPAPCCVPASYNPMVLIQKTDTGVSLQTYDDLLAKDCHCI	–	–	4.9 nM	107 pM	123 pM
AAPEDEETPEQEGSGSGSGSGS-MIC-1-Δ1-3 (ligand) AAPEDEETPEQEGSGSGSGSGSGDHCPLGPGRCCRLHTVRASLEDLGWADWVLSPREVQVTMCIGACPSQFRAANMHAQIKTSLHRLKPDTVPAPCCVPASYNPMVLIQKTDTGVSLQTYDDLLAKDCHCI	100%	0.5 nM	–	–	–
AAPDEGTEEETEGSGSGSGSGS-MIC-1-Δ1-3 (ligand) AAPDEGTEEETEGSGSGSGSGSGDHCPLGPGRCCRLHTVRASLEDLGWADWVLSPREVQVTMCIGACPSQFRAANMHAQIKTSLHRLKPDTVPAPCCVPASYNPMVLIQKTDTGVSLQTYDDLLAKDCHCI	100%	0.5 nM	–	–	–
